In the data set the target is PhiKZ nvRNAP GP55 (beta'-like);PhiKZ nvRNAP GP74 (beta'-like);PhiKZ nvRNAP GP71-73 (beta-like);PhiKZ nvRNAP … (Pseudomonas phage phiKZ;Pseudomonas …, UniProt Q8SDA7;Q8SD88;PDB:8QUE_2;Q8SD39;Q8SD94 1-420;1-677;1-700;1-543;1-521, ||||). The data set is described as follows: cryo-EM structure (3.3 A); 10 mM MgCl2; 1 mM ATP, CTP, GTP, no UTP; Zn2+ in GP55; 40 mM Tris-Cl pH 8.0, 10 mM MgCl2, 5 mM DTT, 1 mM ATP/CTP/GTP, 30 min at 37 C, nvRNAP 0.1 mg/mL with scaffold 1:1; native PAGE 4-20% TGX at 4 C. The following applies: protein: recombinant;recombinant;recombinant;recombinant;recombinant; tags: ;;;;; copies: 1;1;1;1;1; label: Cy5 at 5' end of RNA (printed Cy5-GUAGA); non-template/template DNA with mismatched bubble; RNA hybrid with template (6 bp resolved).

B1: p119L RNA/DNA template with RNA extended by 3 nt (mixed)
DNA 1: AGTAATTTTAGTGAATGTATTTGCTATATTGCTATCCTAACAGTTCCCAAAAGCCTAAAGTTACAATATAGGTAC
DNA 2: GTACCTATATTGTAACTTTAGGCTTTTGGGAACTGTCTACATAGCAATATAGCAAATACATTCACTAAAATTACT
RNA: GUAGACAG
As to B1, the binding result is reported as “binds”.
